Source: patent US20130252821A1, “METHODS AND COMPOSITIONS FOR THE TREATMENT AND DIAGNOSIS OF DISEASES CHARACTERIZED BY VASCULAR LEAK, HYPOTENSION, OR A PROCOAGULANT STATE” (Beth Israel Deaconess Medical Center, Inc., priority 2005, published 2013)

How the values were obtained:
p85 subunit of PI3K = assay: PI3K activity assay (p85 phosphorylation ELISA); assay type: cell-based, human; settings: Ang-1 100 ng/ml, 15 minutes
Procedure: After signal starvation, HMVEC-L were treated with vehicle or Ang-1 (100 ng/ml) for 15 minutes. Total and phosphorylated p85 subunits of PI3K were quantified using a commercial enzyme-linked immunosorbent assay according to the manufacturer's instruction (Active Motif, Carlsbad, Calif.). Phosphorylated PI3K p85 subunit was corrected by total PI3K.

[1] = system: mice (female FVB strain), lung; assay: Lung histology after LPS; assay type: in vivo, mouse; settings: Ang-1 10 μg ip x 2 doses
Procedure: Mice were treated as above and lungs were harvested, fixed in 10% formalin, embedded in paraffin, sectioned, and stained with hematoxilin and eosin. In Vivo Delivery of siRNA: Delivery of siRNA into mice was performed by TransIT® Hydrodynamic delivery solution (Mires, Madision, Wis.) per the manufacturer's instruction. Mice were injected with either 10 μg control siRNA or 10 μg p190RhoGAP siRNA in 2 nil delivery solution injected into the tail vein over 7 seconds. Four days later, p190RhoGAP knockdown was confirmed by lysing organs in RIPA buffer and performing Western analysis as outlined above. In vivo permeability and histological examination were performed as described above.

[2] = system: mice (female FVB strain), lung; assay: In vivo permeability assay (Evans blue, LPS); parameters: species or system mouse; settings: Ang-1 10 mcg ip x 2 doses
Procedure: Mice (8-12 weeks old, female FVB strain) were pretreated with Ang-1 (10 mcg, ip). 8 hours after the first Ang-1 injection, the second dose of Ang-1 (10 mcg, ip) and LPS (100 μg, ip) were co-injected. Lung permeability was assessed 16 hours after the second injection. Mice were anesthetized with Avertin (2,2,2-Tribromoethanol) and 2% Evans blue (50 μl) was then injected into the retro-orbital sinus. Ten minutes after Evans blue injection, mice were sacrificed and perfused with PBS with 2 mM EDTA for 10 minutes through a cannula placed in the right ventricle. […] Organs were then harvested and homogenized in 1.5 nil formamide. Evans blue was extracted by incubating the samples at 70° C. for 24 hours, and the concentration of Evans blue was estimated by dual-wavelength spectrophotometer (620 and 740 nm). The following formula was used to correct optical densities (E) for contamination with heme pigments: E620 (corrected)=E620−(1.426XE740+0.030).

Tie2 = Tie2 phosphorylation by Ang-1 in HMVEC-L; assay type: cell-based, human; settings: Ang-1 100 ng/ml, 15 minutes
Procedure: (§1) We lysed HMVEC-L with Triton buffer (50 mM Tris-HCl pH 8.0, 150 mM NaCl, 1% Triton X 100, and 5 mM EDTA) supplemented with protease inhibitors (Roche Diagnostics), 1 mM NaF and 1 mM Na3VO4, adjusting protein concentration by BCA protein assay (Pierce) and incubated 200 μg of total protein with anti-Tie2-Ab (clone Ab33, Upstate, Lake Placid, N.Y.) or p190RhoGAP Ab (Transduction laboratory, Lexington, Ky.) for 3 hours, followed by incubation with protein A sepharose (Zymed, San Francisco, Calif.) for 2 hours at 4° C. After washing the beads, proteins were eluted by heating in SDS-sample buffer and detected by immunoblotting with anti-phospho-tyrosine (clone 4G10, Upstate), anti-Tie-2 Ab, or anti-p190RhoGAP Ab.

Akt = Akt phosphorylation (Western blot) in HMVEC-L; assay type: cell-based, human; settings: Ang-1 100 ng/ml, 15 minutes
Procedure: (§2) HMVEC-L were washed with ice-cold PBS three times and lysed with ice-cold RIPA buffer (50 mM Tris-HCl pH7.4, 150 mM NaCl, 1% NP-40, 0.5% Sodium Deoxycholate, 0.1% SDS and 1 mM EDTA) supplemented with protease inhibitors (Roche Diagnostics, Indianapolis, Ind.), 1 mM NaF and 1 mM Na3VO4. Lysates were sonicated and centrifuged at 10,000 rpm for 10 minutes at 4° C., and supernatants were collected. Protein concentrations were determined by BCA protein assay with bovine serum albumin as standard (Pierce, Rockford, Ill.). Lysates were electrophoresed using NuPAGE system (Invitrogen Life Technologies, Franklin Lakes, N.J.) and transferred to PVDF membrane and immunoblotted with specific primary antibodies. Binding of primary antibodies was detected using horseradish peroxidase-conjugated secondary antibodies (Amersham Bioscience, Piscataway, N.J.) and SuperSignal WestDura (Pierce) as a chemiluminescence substrate. Primary antibodies were obtained from these suppliers: anti-phospho-Akt Ab (Ser 473), anti-Akt Ab and anti-phospho-myosin light chain 2 (Ser19) Ab were from Cell Signaling Technology; anti-GAPDH Ab was from Chemicon International (Temecula, Calif.).

HMVEC-L monolayer = assay: Measurement of endothelial permeability in vitro (FITC-albumin); assay type: cell-based, human
Procedure: Coster Transwell membranes (Corning Inc. Corning, N.Y.) were coated with 0.5% Gelatin and cells were grown until confluence. Vehicle or proteins with FITC-albumin (1 mg/ml) was added to the luminal chamber for 4 hours, and samples were taken from both the luminal and abluminal chamber for fluorometry analysis. The readings were converted with the use of a standard curve to albumin concentration. These concentrations were then used in the following equation to determine the permeability coefficient of albumin (Pa).
[A] is abluminal concentration; t is time in seconds; A is area of membrane in cm^2; V is volume of abluminal chamber; and [L] is luminal concentration. siRNA Transfection: HMVEC-Ls were seeded and control small interfering RNA (siRNA) (Ambion, Ausin, Tex.) or siRNA directed to human p190RhoGAP (5′-[…]-3′ SEQ ID NO: 5 and 5′-[…]-3′ SEQ ID NO: 6) was transfected using SilentFect Lipid reagent (Bio-Rad) according to the manufacturer's instructions. The cells were used for each experiment 3 days after transfection. Almost 90-100% cells were transfected with siRNA (checked by fluorescent labeled siRNA). Down-regulation of p190RhoGAP was verified by immunoblotting. We tested two different siRNA for the experiment and obtained similar results.

HMVEC-L = assay: Immunohistochemistry of HMVEC-L (F-actin, MLC-P, VE-cadherin); assay type: cell-based, human
Procedure: HMVEC-L were grown to confluent on glass coverslips coated with 0.1% gelatin (Attachment factor, Cascade Biologics, Portland, Oreg.) in 5% FBS/EGM2. […] We used rhodamine phalloidin (Molecular Probe) for F-actin staining and TOPRO®-3-iodine (Molecular Probe) for nuclear staining. Fluorescence images were obtained using a Bio Rad MRC confocal fluorescence microscope.

[3] = system: MLC phosphorylation (MLC-P); assay: MLC-P immunoblot in HMVEC-L; assay type: cell-based, human; settings: Ang-1, HMVEC-L
Procedure: as §2

p190RhoGAP = p190RhoGAP phosphorylation in HMVEC-L; assay type: cell-based, human; settings: Ang-1 100 ng/ml
Procedure: as §1

B1: Ang-1: Human recombinant angiopoietin-1 purchased from R&D systems; Tie-2 agonist, endogenous Ang-2 antagonist (protein, listed as Homo sapiens)
chain: MTVFLSFAFLAAILTHIGCSNQRRSPENSGRRYNRIQHGQCAYTFILPEHDGNCRESTTDQYNTNALQRDAPHVEPDFSSQKLQHLEHVMENYTQWLQKLENYIVENMKSEMAQIQQNAVQNHTATMLEIGTSLLSQTAEQTRKLTDVETQVLNQTSRLEIQLLENSLSTYKLEKQLLQQTNEILKIHEKNSLLEHKILEMEGKHKEELDTLKEEKENLQGLVTRQTYIIQELEKQLNRATTNNSVLQKQQLELMDTVHNLVNLCTKEGVLLKGGKREEEKPFRDCADVYQAGFNKSGIYTIYINNMPEPKKVFCNMDVNGGGWTVIQHREDGSLDFQRGWKEYKMGFGNPSGEYWLGNEFIFAITSQRQYMLRIELMDWEGNRAYSQYDRFHIGNEKQNYRLYLKGHTGTAGKQSSLILHGADFSTKDADNDNCMCKCALMLTGGWWFDACGPSNLNGMFYTAGQNHGKLNGIKWHYFKGPSYSLRSTTMMIRPLDF
With B1 the “phosphorylation of the p85 subunit of PI3K” value (p85 subunit of PI3K) was “induces phosphorylation of the p85 subunit of PI3K”, the “effect on LPS-induced edema and leukocyte infiltration” value [1] was “reversed” and the “effect on endotoxin-increased lung permeability” value [2] was “blocked”. The Tie2 phosphorylation (Tie2) was “induces Tie2 phosphorylation”, the Akt phosphorylation (Akt) was “induces Akt phosphorylation” and the basal monolayer permeability (HMVEC-L monolayer; Ang-1 100 ng/ml, 4 hours) was “somewhat decreased”. The “effect on endotoxin-induced permeability” value (HMVEC-L monolayer; LPS with Ang-1) was “completely reversed”, the “cytoskeleton and junction staining compared to control cells” value (HMVEC-L; Ang-1, confluent HMVEC-L, 30 min) was “increase in cortical actin, peripheral MLC-P, and increased VE-cadherin staining at cell junctions” and the “effect on endotoxin-induced structural derangements” value (HMVEC-L; endotoxin plus Ang-1) was “reverted the endotoxin-induced derangements to a normal appearance”. For the same molecule, the “time of peak MLC phosphorylation (MLC-P) after stimulation” value [3] was 0.5 to 1.0 h and the “phosphorylation of p190RhoGAP” value (p190RhoGAP) was “induces phosphorylation of p190RhoGAP”.
